Experimental data: patent publication US20090311693A1

Molecular target: SK2 or SK3 channels (apamin-sensitive channels of MDA-MB-435s cells)
Assay: cell-based or functional assay

Substance: apamin (from UniProt P01500 28-45) (peptide)
- block of whole-cell outward K+ currents in MDA-MB-435s cells (patch-clamp), IC50: < 0.1 nM
